{"source": "the RNAGym collection of RNA variant scans (doi:10.7554/elife.90254)", "parents": {"B1": {"name": "OR4K15 (parent)", "chain": "GUUAACGGUCAUAGGCCAUGGAAACUAGGAGCACCAUUUCGCUGCCAGUGAAGAAAUGAACAAAGAAAAUCUGGGCCAGGCAGGCAUCAAAAGAAAUAGUCUUGCGCUCAACCAGAAAGUCUGUAAUCAUUUUAAGGGUA"}}, "data": [{"variants_of": "B1", "experiment": "self-cleavage, relative activity (ratio to wild type); higher = more cleavage; in vitro, sequencing; the parent is a self-cleaving ribozyme", "values": [{"variant": "A22G C25A", "self-cleavage": 0.35}, {"variant": "A22G C25G", "self-cleavage": 1.24}, {"variant": "A22G A30G", "self-cleavage": 0.99}, {"variant": "A22G A30U", "self-cleavage": 1.9}, {"variant": "A22U U26C", "self-cleavage": 0.97}, {"variant": "A22U A55G", "self-cleavage": 0.73}, {"variant": "A23C U132C", "self-cleavage": 1.51}, {"variant": "A22G G83A", "self-cleavage": 1.27}, {"variant": "A22G G83U", "self-cleavage": 0.54}, {"variant": "A22U C121U", "self-cleavage": 0}, {"variant": "A22G A116G", "self-cleavage": 0.57}, {"variant": "A22U A118U", "self-cleavage": 0.64}, {"variant": "A22U A118G", "self-cleavage": 1.13}, {"variant": "A22G A118G", "self-cleavage": 0.99}, {"variant": "A22U A54U", "self-cleavage": 1.56}, {"variant": "A22U U39A", "self-cleavage": 2.33}, {"variant": "A22U C105U", "self-cleavage": 0.18}, {"variant": "A22U U49C", "self-cleavage": 0.77}, {"variant": "A22G U72A", "self-cleavage": 0.49}, {"variant": "A22G U72C", "self-cleavage": 0.33}, {"variant": "A22G A55U", "self-cleavage": 1.26}, {"variant": "A22G A55G", "self-cleavage": 1.16}, {"variant": "A22G A62G", "self-cleavage": 1.12}, {"variant": "A23C A117G", "self-cleavage": 2.19}, {"variant": "A22G U103C", "self-cleavage": 0.98}, {"variant": "A22G U120C", "self-cleavage": 0.98}, {"variant": "A22G A54U", "self-cleavage": 1.08}, {"variant": "A22G G48U", "self-cleavage": 0.9}, {"variant": "A22G A24C", "self-cleavage": 0.56}, {"variant": "A22G G29C", "self-cleavage": 2.4}, {"variant": "A22U A30C", "self-cleavage": 0.38}, {"variant": "A22U A114G", "self-cleavage": 1.09}, {"variant": "A22G C40U", "self-cleavage": 1.85}, {"variant": "A22G A66U", "self-cleavage": 1.41}, {"variant": "A22G A66C", "self-cleavage": 1.49}, {"variant": "A22G A66G", "self-cleavage": 1.25}, {"variant": "A22U A82U", "self-cleavage": 0.32}, {"variant": "A22G A64U", "self-cleavage": 0.62}, {"variant": "A22G A64G", "self-cleavage": 1.31}, {"variant": "A22G A95G", "self-cleavage": 1.75}, {"variant": "A22U G99A", "self-cleavage": 1.39}, {"variant": "A22U A89U", "self-cleavage": 1.91}, {"variant": "A23G", "self-cleavage": 0.97}, {"variant": "A23C", "self-cleavage": 0.9}, {"variant": "A22U U130C", "self-cleavage": 0.32}, {"variant": "A22G G75C", "self-cleavage": 0.37}, {"variant": "A22U U102C", "self-cleavage": 2.02}, {"variant": "A22U A23U", "self-cleavage": 1.59}, {"variant": "A22G A27U", "self-cleavage": 1.2}, {"variant": "A22G G74A", "self-cleavage": 0.24}, {"variant": "A22G C112A", "self-cleavage": 0.05}, {"variant": "A22G C107U", "self-cleavage": 0.06}, {"variant": "A22U A52G", "self-cleavage": 1.63}, {"variant": "A22G U39G", "self-cleavage": 1.41}, {"variant": "A22G C113U", "self-cleavage": 0.14}, {"variant": "A22G G138U", "self-cleavage": 0.66}, {"variant": "A22G A23U", "self-cleavage": 1.26}, {"variant": "A22G U26C", "self-cleavage": 1.02}, {"variant": "A22G U26A", "self-cleavage": 0.67}, {"variant": "A22G A36G", "self-cleavage": 1.4}, {"variant": "A22G A135U", "self-cleavage": 1.86}, {"variant": "A22G A135G", "self-cleavage": 1.54}, {"variant": "A22G U49A", "self-cleavage": 0.65}, {"variant": "A22G U130C", "self-cleavage": 0.3}, {"variant": "A22G U131C", "self-cleavage": 0.51}, {"variant": "A22G A67G", "self-cleavage": 1.16}, {"variant": "A23G A27G", "self-cleavage": 0.89}, {"variant": "A22G C42A", "self-cleavage": 0.91}, {"variant": "A22G C42U", "self-cleavage": 1.45}, {"variant": "A23C A114U", "self-cleavage": 0.01}, {"variant": "A22G A78G", "self-cleavage": 0.27}, {"variant": "A22G A78U", "self-cleavage": 0.32}, {"variant": "A22U A47G", "self-cleavage": 1.13}, {"variant": "A22G A82G", "self-cleavage": 0.68}, {"variant": "A22G A82C", "self-cleavage": 0.25}, {"variant": "A22U U103C", "self-cleavage": 1.66}, {"variant": "A22G G28C", "self-cleavage": 1.42}, {"variant": "A22G G28A", "self-cleavage": 1.28}, {"variant": "A22G A126C", "self-cleavage": 0.67}, {"variant": "A22U A69G", "self-cleavage": 1}, {"variant": "A22G A89G", "self-cleavage": 0.62}, {"variant": "A22G A89U", "self-cleavage": 1.43}, {"variant": "A22G A51U", "self-cleavage": 1.24}]}]}
